The source of these data is patent publication US20100184663A1.

The target of assay [1] is HIV-1 gp41 (JRFL strain) (HIV-1 JRFL). Kind of assay: cell-based or functional assay.
Assay [2] deals with HIV-1 gp41 (HXB2 strain) (HIV-1 HXB2) (UniProt P04578). Kind of assay: cell-based or functional assay.

Turning to “Fuzeon (from UniProt P04578 638-673) (peptide)”, the IC50 (JRFL), pseudovirion entry in assay [1] was determined as 5 nM. Also, in assay [2], the IC50 (HXB2), pseudovirion entry turned out to be 3.7 nM and the IC50 (HXB2), single-cycle viral infectivity assay was found to be 3.7 nM.
